Reference: PMC4141822
Residue numbers refer to the chain shown, from its start. Numbers in names are those of the source.

Columns and labels:
[1] = target: T1, Csa5 (Csa5b) WT (Thermoproteus tenax Kra1) (UniProt G4RJZ0); experiment: EMSA; settings: EMSA: 100 mM HEPES/KOH pH 7, 10 mM beta-mercaptoethanol, 37 C 30 min, 6% native TBE PAGE; MST: 50 mM Tris-HCl pH 7.4, 150 mM NaCl, 0.05% Tween-20, 37 C 30 min …
T1 sequence: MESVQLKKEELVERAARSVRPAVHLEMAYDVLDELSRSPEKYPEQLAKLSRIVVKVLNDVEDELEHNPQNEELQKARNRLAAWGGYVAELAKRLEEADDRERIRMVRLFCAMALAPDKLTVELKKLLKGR

[2] = target: T2, Csa5 (Csa5b) WT (Thermoproteus tenax Kra1, UniProt G4RJZ0 1-130); experiment: EMSA; 7-fold weaker than NT DNA; EMSA: 100 mM HEPES/KOH pH 7, 10 mM beta-mercaptoethanol, 37 C 30 min, 6% native TBE PAGE; MST: 50 mM Tris-HCl pH 7.4, 150 mM NaCl, 0.05% Tween-20, 37 C 30 min; settings: protein: recombinant; tags: none stated (pET24a); label: 5' 32P
T2 sequence: T1 sequence

[3] = target: T2, Csa5 (Csa5b) WT; experiment: EMSA; no difference from GAG-PAM; EMSA: 100 mM HEPES/KOH pH 7, 10 mM beta-mercaptoethanol, 37 C 30 min, 6% native TBE PAGE; MST: 50 mM Tris-HCl pH 7.4, 150 mM NaCl, 0.05% Tween-20, 37 C 30 min; settings: protein: recombinant; tags: none stated (pET24a); label: 5' 32P
[4] = target: T2, Csa5 (Csa5b) WT; experiment: MST; Tris pH 7.4, 150 mM NaCl; no metal; EMSA: 100 mM HEPES/KOH pH 7, 10 mM beta-mercaptoethanol, 37 C 30 min, 6% native TBE PAGE; MST: 50 mM Tris-HCl pH 7.4, 150 mM NaCl, 0.05% Tween-20, 37 C 30 min; settings: protein: recombinant; tags: none stated (pET24a); label: 5' Cy3
[5] = target: T2, Csa5 (Csa5b) WT; experiment: EMSA; 15 uM Csa5; EMSA: 100 mM HEPES/KOH pH 7, 10 mM beta-mercaptoethanol, 37 C 30 min, 6% native TBE PAGE; MST: 50 mM Tris-HCl pH 7.4, 150 mM NaCl, 0.05% Tween-20, 37 C 30 min; settings: protein: recombinant; tags: none stated (pET24a); label: 5' 32P
[6] = target: T2, Csa5 (Csa5b) WT; experiment: EMSA; duplex formed with 1000x cold crRNA; 15 uM Csa5; EMSA: 100 mM HEPES/KOH pH 7, 10 mM beta-mercaptoethanol, 37 C 30 min, 6% native TBE PAGE; MST: 50 mM Tris-HCl pH 7.4, 150 mM NaCl, 0.05% Tween-20, 37 C 30 min; settings: protein: recombinant; tags: none stated (pET24a); label: 5' 32P on DNA
[7] = target: T2, Csa5 (Csa5b) WT; experiment: EMSA; 3.75-60 uM Csa5; EMSA: 100 mM HEPES/KOH pH 7, 10 mM beta-mercaptoethanol, 37 C 30 min, 6% native TBE PAGE; MST: 50 mM Tris-HCl pH 7.4, 150 mM NaCl, 0.05% Tween-20, 37 C 30 min; settings: protein: recombinant; tags: none stated (pET24a); label: 5' 32P
[8] = target: T3, Thermoproteus tenax Cas8a2 (Thermoproteus tenax, UniProt G4RJZ5 1-361); experiment: co-refolding reconstitution, soluble fraction by SDS-PAGE; 300 µg of each GdmCl-solubilized Cas5a, Cas3′, Cas3″ and Cas8a2 mixed with purified Cas7 and a Csa5 variant, co-refolded by stepwise dialysis into GdmCl-free buffer; aggregates precipitated (14,000×g, 30 min, 4°C), soluble proteins concentrated and analysed by SDS-PAGE; settings: both partners purified
T3 construct: also called large subunit
T3 sequence (looked up): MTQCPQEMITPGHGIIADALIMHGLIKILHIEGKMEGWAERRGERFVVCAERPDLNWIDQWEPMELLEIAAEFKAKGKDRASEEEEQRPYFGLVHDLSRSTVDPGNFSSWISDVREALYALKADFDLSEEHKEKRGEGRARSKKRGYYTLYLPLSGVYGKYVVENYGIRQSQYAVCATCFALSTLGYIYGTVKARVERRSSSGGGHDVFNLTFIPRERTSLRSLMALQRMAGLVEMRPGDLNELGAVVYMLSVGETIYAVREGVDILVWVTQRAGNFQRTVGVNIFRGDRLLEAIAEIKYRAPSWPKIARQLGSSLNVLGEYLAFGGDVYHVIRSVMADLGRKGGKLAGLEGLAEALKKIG

[9] = target: T4, Thermoproteus tenax Cas5a (Thermoproteus tenax, UniProt G4RJZ2 1-226); experiment: as above; settings: both partners purified
T4 sequence (looked up): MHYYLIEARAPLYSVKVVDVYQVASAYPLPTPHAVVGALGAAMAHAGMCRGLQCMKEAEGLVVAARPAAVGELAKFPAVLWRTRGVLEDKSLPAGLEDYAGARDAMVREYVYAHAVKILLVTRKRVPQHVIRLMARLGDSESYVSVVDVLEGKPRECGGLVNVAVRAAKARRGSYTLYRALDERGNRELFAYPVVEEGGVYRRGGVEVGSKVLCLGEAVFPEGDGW

[10] = target: T5, Thermoproteus tenax Cas7 (Thermoproteus tenax, UniProt G4RJZ1 1-329); experiment: as above; settings: both partners purified
T5 sequence (looked up): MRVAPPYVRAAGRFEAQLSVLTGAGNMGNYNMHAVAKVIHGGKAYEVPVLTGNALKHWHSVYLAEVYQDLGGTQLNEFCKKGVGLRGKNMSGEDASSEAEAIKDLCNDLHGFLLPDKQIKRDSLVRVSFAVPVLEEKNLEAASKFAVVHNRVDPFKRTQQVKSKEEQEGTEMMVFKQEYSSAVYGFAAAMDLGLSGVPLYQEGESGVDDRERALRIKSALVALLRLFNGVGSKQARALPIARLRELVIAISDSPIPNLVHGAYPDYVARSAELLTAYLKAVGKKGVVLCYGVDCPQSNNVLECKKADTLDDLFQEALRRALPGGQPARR

[11] = target: T2, Csa5 (Csa5b) WT; experiment: EMSA; no difference from AGG-PAM; EMSA: 100 mM HEPES/KOH pH 7, 10 mM beta-mercaptoethanol, 37 C 30 min, 6% native TBE PAGE; MST: 50 mM Tris-HCl pH 7.4, 150 mM NaCl, 0.05% Tween-20, 37 C 30 min; settings: protein: recombinant; tags: none stated (pET24a); label: 5' 32P

“GTCGACTAATACGACTCACTATAGGCCTATCGCTTGTCCAACCGGGCTCCTCTATATGTCGTCATTAGCTTACCGCTGAGCAATAACTAGCAAGCTT (double strand) [NT/T dsDNA 97 bp]” gave a binding signal (fold weaker than ssDNA) [1] of 14.

GTCGACTAATACGACTCACTATAGGCCTATCGCTTGTC (ssDNA) [p1 (38 nt)] gave a binding signal [2] of 12 % bound at 15 uM.

B1: AGG-PAM poly-PAM ssDNA (ssDNA)
DNA: AAAAGGAAAAGGAAAAGGAAAAGGAAAAGGAAAAGGAAAAGGAAAAGGAAAAGGAAAAGGAAAAGGAAAAGGAAAAGGAAAAGGAAAAGGAAAAGGAAAA
B1: binds [3].

B2: Cy3-non-target ssDNA 80 nt (ssDNA)
DNA: CGACTCACTATAGGCCTATCGCTTGTCCAACCGGGCTCCTCTATATGTCGTCATTAGCTTACCGCTGAGCAATAACTAGC
B2 was tested, and the Kd [4] was 6.49 µM.

In the case of CGTCATTAGCTTACCGCTGAGCAATAACTAGCAAGCTT (ssDNA) [p3 (38 nt)], the binding signal [2] is reported as 12 % bound at 15 uM.

ATCGCTTGTCCAACCGGGCTCCTCTATATGTCGTCATT (ssDNA) [p2 (38 nt)] gave a binding signal [2] of 12 % bound at 15 uM.

B3: target (T) ssDNA 97 nt (ssDNA)
DNA: AAGCTTGCTAGTTATTGCTCAGCGGTAAGCTAATGACGACATATAGAGGAGCCCGGTTGGACAAGCGATAGGCCTATAGTGAGTCGTATTAGTCGAC
B3: binds [5].

B4: T DNA:crRNA hybrid (DNA:RNA)
DNA: B3 DNA
RNA: AUUGAAAGAUCGCUUGUCCAACCGGGCUCCUCUAUAUGUCGUCAUUAGCUUAGA
B4: no binding [6].

B5: CCA-PAM poly-PAM ssDNA (ssDNA)
DNA: AAAACCAAAACCAAAACCAAAACCAAAACCAAAACCAAAACCAAAACCAAAACCAAAACCAAAACCAAAACCAAAACCAAAACCAAAACCAAAACCAAAA
B5: binds [7].

B6: Thermoproteus tenax Csa5 wild type (TTX_1250) (natural protein, Thermoproteus tenax Kra1, UniProt G4RJZ0 1-130, looked up)
chain: T1 sequence
notes: Csa5 (Csa5b), small subunit of the type I-A Cascade, Thermoproteus tenax Kra1, locus TTX_1250; theoretical mass of the monomer 15.04 kDa; no tag is named and the purification uses none; also called Csa5 WT; Csa5b; source: E. coli Rosetta(DE3)pLysS, purified (heat precipitation 90°C, Blue-Sepharose, MonoQ)
B6: binds [8]; binds [9]; binds [10].

B7: Thermoproteus tenax Csa5 Y29A (natural protein, Thermoproteus tenax Kra1, UniProt G4RJZ0 1-130, looked up)
chain: T1 sequence with Y29A
notes: Made by site-directed mutagenesis of the pET24a csa5 construct; source: E. coli Rosetta(DE3)pLysS, purified (heat precipitation 90°C, Blue-Sepharose, MonoQ)
B7: binds [8]; binds [9]; binds [10].

B8: Thermoproteus tenax Csa5 D30A/D33A (natural protein, Thermoproteus tenax Kra1, UniProt G4RJZ0 1-130, looked up)
chain: T1 sequence with D30A, D33A
notes: as for B7
B8: binds [8]; binds [9]; binds [10].

B9: Thermoproteus tenax Csa5 D33A (natural protein, Thermoproteus tenax Kra1, UniProt G4RJZ0 1-130, looked up)
chain: T1 sequence with D33A
notes: as for B7
B9: binds [8]; binds [9]; binds [10].

B10: GAG-PAM disrupted poly-PAM ssDNA (ssDNA)
DNA: AAAAGAGAAAGAGAAAGAGAAAGAGAAAGAGAAAGAGAAAGAGAAAGAGAAAGAGAAAGAGAAAGAGAAAGAGAAAGAGAAAGAGAAAGAGAAAGAGAAA
B10: binds [11].

B11: CAC-PAM disrupted poly-PAM ssDNA (ssDNA)
DNA: AAAACACAAACACAAACACAAACACAAACACAAACACAAACACAAACACAAACACAAACACAAACACAAACACAAACACAAACACAAACACAAACACAAA
B11: binds [7].
